This assay has as its target L-plastin EF construct (EF-hand headpiece domain, H5 region omitted) (human). The assay is described as follows: SPR; EF construct immobilised by its sole cysteine (Cys42) on a CM5 chip by thiol coupling; peptides injected; BIAcore X100; 10 mM Tris-HCl pH 7.5, 150 mM KCl, 1 mM CaCl2, 0.005% Tween-20; 30 uL/min, contact 1 min, 25 °C.

The values that follow come from paper PMC5286426, “The Calcium-Dependent Switch Helix of L-Plastin Regulates Actin Bundling” (Scientific Reports, 2017).

B1: synthetic H5 peptide representing the H5 region of LPL (residues 83-100) (peptide)
peptide: Ac-STDVAKTFRKAINKKEGI-NH2
Molecule B1 displayed a Kd of 3.52 µM.
